Experimental data taken from patent US20160152728A1 (AFFEMED, published 2016).

B1: EGFRvIII/CD3 TandAb with EGFRvIII binding domain ABC471, domain order (i) VL^CD3(v64)-VH^EGFRvIII-VL^EGFRvIII-VH^CD3(v64) (bispecific antibody, part only; not given: CD3 v64 domain and linkers, not shown: small tags and cut ends)
chain, part: EVQLVQSGAEVKKPGESLKISCKGSGYSFNSYWIGWVRQMPGKGLEWMGIIYPGDSANRYSPSFQGQVTISADKSISTAYLQWSSLKASDTAMYYCARLGSSWTNDAFDIWGQGTLVTVSSSYELTQPPSVSVSPGQTARITCSGDYLPKQYAYWYQQKPGQAPVLVIYKDTERPSGIPERFSGSSSGTTVTLTISGVQAEDEADYYCQSVDSSHPSVVFGGGTKLTVL
B2: EGFRvIII/CD3 TandAb with EGFRvIII binding domain ABC471, domain order (iv) VH^EGFRvIII-VL^CD3-VH^CD3-VL^EGFRvIII (bispecific antibody, part only; not given: CD3 domain and linkers, not shown: small tags and cut ends)
chain, part: EVQLVQSGAEVKKPGESLKISCKGSGYSFNSYWIGWVRQMPGKGLEWMGIIYPGDSANRYSPSFQGQVTISADKSISTAYLQWSSLKASDTAMYYCARLGSSWTNDAFDIWGQGTLVTVSSSYELTQPPSVSVSPGQTARITCSGDYLPKQYAYWYQQKPGQAPVLVIYKDTERPSGIPERFSGSSSGTTVTLTISGVQAEDEADYYCQSVDSSHPSVVFGGGTKLTVL
B3: EGFRvIII/CD3 TandAb with EGFRvIII binding domain ABC472, domain order (i) VL^CD3(v64)-VH^EGFRvIII-VL^EGFRvIII-VH^CD3(v64) (bispecific antibody, part only; not given: CD3 v64 domain and linkers, not shown: small tags and cut ends)
chain, part: EVQLVQSGAEVKKPGESLKISCKGSGYSFGYYWIGWVRQMPGKGLEWMGIIYPGDSHTRYSPSFQGQVTISADKSISTAYLQWSSLKASDTAMYYCARLGSSWTNDAFDIWGQGTLVTVSSSYELTQPPSVSVSPGQTARITCSGDALPKQYAYWYQQKPGQAPVLVIYKDTERPSGIPERFSGSSSGTTVTLTISGVQAEDEADYYCQSVDSSGTQVVFGGGTKLTVL
B4: EGFRvIII/CD3 TandAb with EGFRvIII binding domain ABC469, domain order (i) VL^CD3(v64)-VH^EGFRvIII-VL^EGFRvIII-VH^CD3(v64) (bispecific antibody, part only; not given: CD3 v64 domain and linkers, not shown: small tags and cut ends)
chain, part: EVQLVQSGAEVKKPGESLKISCKGSGYSFNSYWIGWVRQMPGKGLEWMGIIYPGDSDTRYSPSFQGQVTISADKSISTAYLQWSSLKASDTAMYYCARLGSSWTNDAFDIWGQGTLVTVSSLTQPPSYESVSVSPGQTARITCSGDTLPKQYAYWYQQKPGQAPVLVIYKDSERPSGIPERFSGSSSGTTVTLTISGVQAEDEADYYCQSVDVSGTYVVFGGGTKLTVL
B5: EGFRvIII/CD3 TandAb with EGFRvIII binding domain ABC469, domain order (iv) VH^EGFRvIII-VL^CD3-VH^CD3-VL^EGFRvIII (bispecific antibody, part only; not given: CD3 domain and linkers, not shown: small tags and cut ends)
chain, part: EVQLVQSGAEVKKPGESLKISCKGSGYSFNSYWIGWVRQMPGKGLEWMGIIYPGDSDTRYSPSFQGQVTISADKSISTAYLQWSSLKASDTAMYYCARLGSSWTNDAFDIWGQGTLVTVSSLTQPPSYESVSVSPGQTARITCSGDTLPKQYAYWYQQKPGQAPVLVIYKDSERPSGIPERFSGSSSGTTVTLTISGVQAEDEADYYCQSVDVSGTYVVFGGGTKLTVL
B6: EGFRvIII/CD3 TandAb with EGFRvIII binding domain ABC470, domain order (i) VL^CD3(v64)-VH^EGFRvIII-VL^EGFRvIII-VH^CD3(v64) (bispecific antibody, part only; not given: CD3 v64 domain and linkers, not shown: small tags and cut ends)
chain, part: EVQLVQSGAEVKKPGESLKISCKGSGYSFNSYWIGWVRQMPGKGLEWMGIIYPGDSDTRYSPSFQGQVTISADKSISTAYLQWSSLKASDTAMYYCARLGSSWTNDAFDIWGQGTLVTVSSSYELTQPPSVSVSPGQTARITCSGDALDKQYAYWYQQKPGQAPVLVIYKDSERPSGIPERFSGSSSGTTVTLTISGVQAEDEADYYCQSVDSSETYVVFGGGTKLTVL
B7: EGFRvIII/CD3 TandAb with EGFRvIII binding domain ABC470, domain order (iv) VH^EGFRvIII-VL^CD3-VH^CD3-VL^EGFRvIII (bispecific antibody, part only; not given: CD3 domain and linkers, not shown: small tags and cut ends)
chain, part: EVQLVQSGAEVKKPGESLKISCKGSGYSFNSYWIGWVRQMPGKGLEWMGIIYPGDSDTRYSPSFQGQVTISADKSISTAYLQWSSLKASDTAMYYCARLGSSWTNDAFDIWGQGTLVTVSSSYELTQPPSVSVSPGQTARITCSGDALDKQYAYWYQQKPGQAPVLVIYKDSERPSGIPERFSGSSSGTTVTLTISGVQAEDEADYYCQSVDSSETYVVFGGGTKLTVL
B8: TandAb EGFRvIII(ABC478)/CD3(v64) (bispecific antibody)
tandem diabody polypeptide (homodimer): DIQMTQSPSSLSASVGDRVTITCRSSTGAVTTSNYANWVQQKPGKAPKALIGGTNKRAPGVPSRFSGSLIGDKATLTISSLQPEDFATYYCALWYSNLWVFGQGTKVEIKEVQLVQSGAEVKKPGESLKISCKGSGYSFNSYWIGWVRQMPGKGLEWMGIIYPGDEDTRYSPSFQGQVTISADKSISTAYLQWSSLKASDTAMYYCARLGSSWTNDAFDIWGQGTLVTVSSSYELTQPPSVSVSPGQTARITCSGDALPKQYAYWYQQKPGQAPVLVIYKDTERPSGIPERFSGSSSGTTVTLTISGVQAEDEADYYCQSVDPSGTYVVFGGGTKLTVLEVQLVESGGGLVQPGGSLRLSCAASGFTFSTYAMNWVRQAPGKGLEWVGRIRSKYNNYATYYADSVKDRFTISRDDSKNSLYLQMNSLKTEDTAVYYCARHGNFGNSYVSYFAYWGQGTLVTVSS
notes: also called domain order (i) VL^CD3-VH^EGFRvIII-VL^EGFRvIII-VH^CD3
B9: Li3G30 scFv (parental) (scFv, V domains shown)
VH: EVQLVQSGAEVKKPGESLKISCKGSGYSFTSYWIGWVRQMPGKGLEWMGIIYPGDSDTRYSPSFQGQVTISADKSISTAYLQWSSLKASDTAMYYCARLGSSWTNDAFDIWGQGTMVTVSS
VL: SYELTQPPSVSVSPGQTARITCSGDALPKQYAYWYQQKPGQAPVLVIYKDSERPSGIPERFSGSSSGTTVTLTISGVQAEDEADYYCQSADSSGTPLIVFGTGTKLTVL
notes: One-chain scFv, His-tagged; also called parental scFv; starting clone Li3G30

Columns and labels:
[1] = biological target: T1, EGFRvIII expressed on cells (CHO^EGFRvIII, F98^EGFRvIII) (UniProt P00533 25-1210); assay: cell-based or functional assay
T1 construct: whole, on cells; the vIII deletion must be applied; also called deletion mutant EGFRvIII

[2] = biological target: EGFRvIII-Fc fusion antigen (human) (UniProt P00533); assay: ELISA on coated EGFRvIII-Fc; TandAb detected with Protein L-HRP, Abs(450nm) [EGFRvIII binding]
[3] = biological target: EGFRvIII-Fc fusion antigen (human, UniProt P00533 25-645); assay: as above
[4] = biological target: CD3γε recombinant antigen (UniProt P09693); assay: ELISA on coated CD3γε antigen; TandAb detected with Protein L-HRP, Abs(450nm) [CD3γε binding]
Sequence of CD3γε recombinant antigen (P09693 23-116, chain 1 of 2): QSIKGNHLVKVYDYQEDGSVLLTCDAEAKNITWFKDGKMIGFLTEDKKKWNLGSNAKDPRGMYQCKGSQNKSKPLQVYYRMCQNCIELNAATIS
Sequence of CD3γε recombinant antigen (P07766 23-126, chain 2 of 2, further chain): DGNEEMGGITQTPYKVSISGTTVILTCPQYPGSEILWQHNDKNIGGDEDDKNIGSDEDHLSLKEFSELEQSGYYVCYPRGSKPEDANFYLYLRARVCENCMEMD

[5] = biological target: T2, wild type EGFR expressed on cells (CHO^EGFR, F98^EGFR) (human, UniProt P00533 25-1210); assay: flow cytometry on F98^EGFR cells; scFv detected with anti-His followed by FITC-conj. goat anti-mouse IgG
T2 construct: whole, on cells; also called native EGFR; EGFRwt
Method: (§1) After a second washing cycle, the cells were incubated with 0.1 mL of 15 μg/mL FITC-conjugated goat anti-mouse IgG antibodies under the same conditions as before. As a control, cells were incubated with the anti-His IgG 13/45/31 followed by the FITC-conjugated goat anti-mouse IgG antibodies without scFvs. The cells were then washed again and resuspended in 0.2 mL of FACS buffer containing 2 μg/mL propidium iodide in order to exclude dead cells. The fluorescence of 1×10⁴ living cells was measured using a Beckman-Coulter FC500 MPL flow cytometer using the MXP software (Beckman-Coulter, Krefeld, Germany) or a Millipore Guava EasyCyte flow cytometer using the Incyte software (Merck Millipore, Schwalbach, Germany). Mean fluorescence intensities of the cell samples were calculated using CXP software (Beckman-Coulter, Krefeld, Germany) or Incyte software (Merck Millipore, Schwalbach, Germany).
(§2) In case of analysis with Beckman-Coulter FC500 MPL flow cytometer 0.5×10⁶ cells/staining and in case of Millipore Guava EasyCyte flow cytometer only 0.25×10⁶ cells/staining were used.

[6] = biological target: T1, EGFRvIII expressed on cells …; assay: flow cytometry on F98^EGFRvIII cells; scFv detected with anti-His followed by FITC-conj. goat anti-mouse IgG, mean fluorescence intensity
Method: as §1, §2

[7] = biological target: T1, EGFRvIII expressed on cells …; assay: flow cytometry on CHO^EGFRvIII cells; scFv detected with anti-His followed by FITC-conj. goat anti-mouse IgG, mean fluorescence intensity
Method: as §1, §2

Row | Binder | Cytotoxic potency EC50 [1] [nM] | cytotoxicity improvement factor relative to parental TandAb [1] [fold] | EC50 (read off the curve) [2] [nM] | EC50 (read off the curve) [3] [nM] | EC50 (read off the curve) [4] [nM] | binding result [5] | EC50 (read off the curve) [6] [nM] | EC50 (read off the curve) [7] [nM]
1 | B1 | 1.5 | 18.2 | 0.8 | – | – | – | – | –
2 | B2 | 3.1 | 69.8 | – | 0.6 | – | – | – | –
3 | B3 | 4.2 | 6.5 | 0.8 | – | – | – | – | –
4 | B4 | 11 | 2.5 | – | 1 | – | – | – | –
5 | B5 | 6.5 | 33.3 | – | 0.6 | 7 | – | – | –
6 | B6 | 4 | 6.8 | 0.7 | – | – | – | – | –
7 | B7 | 3.8 | 56.9 | – | 0.9 | – | – | – | –
8 | B8 | – | – | – | ~1 | – | – | – | –
9 | B9 | – | – | – | – | – | no binding (tested: about 3300 nM) | ~6 | ~5
